In US20170355774A1 (Regeneron, published 2017):

Key:
[1] = biological target: T1, human GITR (amino acids M1-V241, NCBI Accession #NP_004186.1) expressed on cells (human, UniProt Q9Y5U5 26-241); test: ECL cell binding, hGITR/HEK293-D9
T1 construct: also called hGITR; hGITR/HEK293-D9
T1 sequence: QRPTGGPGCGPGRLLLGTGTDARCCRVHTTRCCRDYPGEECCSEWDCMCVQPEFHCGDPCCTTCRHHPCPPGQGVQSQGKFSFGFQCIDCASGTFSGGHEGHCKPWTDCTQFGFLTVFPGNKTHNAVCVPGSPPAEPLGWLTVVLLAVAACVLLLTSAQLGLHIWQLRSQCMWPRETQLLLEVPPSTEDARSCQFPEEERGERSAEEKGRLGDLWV
Method: Nonspecific binding sites were blocked with 2% BSA (w/v)+PBS for 1 h at room temperature (RT). Next, serial dilutions of anti-GITR antibodies, ranging from 1.7 pM to 100 nM, were added to cells for 1 h at RT. Plates were then washed to remove unbound antibodies (AquaMax2000 plate washer, MSD Analytical Technologies) and plate-bound antibodies were detected with a SULFO-TAG™ conjugated anti-human kappa light chain IgG antibody (Jackson Immunoresearch) for 1 h at RT.
Following washes, luminescent signals were recorded with a SECTOR Imager 6000 (MSD) instrument. Direct binding signals (relative light units, RLU) were analyzed as a function of the antibody concentration and data were fitted with a sigmoidal (four-parameter logistic) dose-response model using GraphPad Prism™ software. […] The signal detected with 100 nM antibody binding to the hGITR expressing cells versus parental cells was recorded as an indication of intensity and specificity of GITR binding.

[2] = biological target: T1, human GITR (amino acids M1-V241, NCBI …); test: cell-based or functional assay
[3] = biological target: T1, human GITR (amino acids M1-V241, NCBI …); test: cell-based or functional assay; remark: listed apart in the source
[4] = biological target: T1, human GITR (amino acids M1-V241, NCBI …); test: cell-based or functional assay; remark: listed apart in the source
hGITR.mmh = biological target: T2, hGITR.mmh (human); test: SPR 37C, mAb capture
T2 construct: soluble monomeric construct; also called human (h) GITR.mmh; monomeric human GITR
T2 chain: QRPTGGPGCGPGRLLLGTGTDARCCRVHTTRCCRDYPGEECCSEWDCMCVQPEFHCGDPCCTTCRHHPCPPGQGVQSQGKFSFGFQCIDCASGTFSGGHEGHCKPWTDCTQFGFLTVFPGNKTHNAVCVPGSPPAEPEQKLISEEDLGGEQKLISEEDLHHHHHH
Method: (§1) (Table 3). […] GITR proteins were injected over the sensor surface at a flow rate of 30 μL/minute. All Biacore binding studies were performed in a buffer composed of 0.01M HEPES pH 7.4, 0.15M NaCl, 3 mM EDTA, 0.05% v/v Surfactant P20 (HBS-ET running buffer). Antibody-reagent association was monitored for 4 minutes while dissociation in HBS-ET running buffer (10 mM HEPES, 150 mM NaCl, 3 mM EDTA, 0.05% (v/v) Surfactant P20, pH 7.4) was monitored for 10 minutes. Kinetic association (kₐ) and dissociation (kd) rate constants were determined by fitting the real-time sensorgrams to a 1:1 binding model using Scrubber 2.0c curve fitting software. Binding dissociation equilibrium constants (KD) and dissociative half-lives (t ½) were calculated from the kinetic rate constants as: KD [M]=kd/kₐ; and t_{1/2}(min)=(ln 2/(60*kd). Results are summarized in Table 3.

mfGITR.mmh = biological target: T3, mfGITR.mmh (Macaca fasicularis); test: SPR 37C, mAb capture
T3 construct: soluble monomeric construct; also called Macaca fasicularis (mf) GITR.mmh; cynomolgus GITR protein
T3 chain: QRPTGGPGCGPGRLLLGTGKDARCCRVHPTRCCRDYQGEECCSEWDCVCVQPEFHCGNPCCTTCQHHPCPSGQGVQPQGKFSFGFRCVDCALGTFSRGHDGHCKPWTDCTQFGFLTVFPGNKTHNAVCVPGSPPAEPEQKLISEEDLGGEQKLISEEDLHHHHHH
Method: as §1

hGITR.mFc = biological target: T4, hGITR.mFc (human); test: SPR 37C, mAb capture
T4 construct: soluble dimeric construct with mouse Fc; also called dimeric human GITR
T4 chain: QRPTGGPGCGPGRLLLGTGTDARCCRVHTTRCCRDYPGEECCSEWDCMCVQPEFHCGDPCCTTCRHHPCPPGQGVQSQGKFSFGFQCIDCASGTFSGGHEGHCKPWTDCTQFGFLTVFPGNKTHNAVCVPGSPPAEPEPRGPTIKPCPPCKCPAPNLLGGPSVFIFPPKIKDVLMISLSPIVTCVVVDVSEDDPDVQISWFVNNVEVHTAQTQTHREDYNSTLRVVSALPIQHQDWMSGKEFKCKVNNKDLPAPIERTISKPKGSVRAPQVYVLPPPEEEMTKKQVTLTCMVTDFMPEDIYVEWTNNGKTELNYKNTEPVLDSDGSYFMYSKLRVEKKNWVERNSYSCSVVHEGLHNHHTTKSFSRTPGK
Method: as §1

[5] = biological target: T1, human GITR (amino acids M1-V241, NCBI …); test: cell-based or functional assay; remark: listed apart in the source

B1: H4H14521P (antibody, human IgG4, V domains shown)
VH: EVQLVESGGGLVQPGGSLRLSCAASGFTFRVYEMNWVRQAPGKGLEWISYIGSSGFTIYYADSVKGRFTISRDNAKNSLFLQLNSLRAEDTAVYYCARGWNDGVPNYLGMDVWGQGTTVTVSS
VL: DIQMTQSPSSLSASVGDRVTITCQASQDINKYLNWYQQKPGKAPKLLIYDASNLETGVPSRFSGSGSGTDFTFTISSLQPEDIARYHCQQYDKIPLTFGGGTKVEIK
notes: human IgG4 (H4H)
Average Signal (RLU) at 100 nM [1]: 10100 RLU
EC50 [1]: 0.43 nM
fold activation, T-cell proliferation, 33 nM, FcgR anchored, donor 1 [2]: 1.5 fold
fold activation, T-cell proliferation, 33 nM, FcgR anchored, donor 2 [2]: 1.1 fold
fold activation, T-cell proliferation, 33 nM, FcgR anchored, donor 3 [2]: 1.1 fold
fold activation, T-cell proliferation, 33 nM, FcgR anchored, donor 4 [2]: 1.7 fold
fold activation, T-cell proliferation, 33 nM, FcgR anchored, donor 5 [2]: 0.9 fold
fold activation, T-cell proliferation, 33 nM, FcgR anchored, mean [2]: 1.2 fold
fold activation, T-cell proliferation, 22 nM, non-anchored, donor 1 [3]: 0.5 fold
fold activation, T-cell proliferation, 22 nM, non-anchored, donor 2 [3]: 1.2 fold
fold activation, T-cell proliferation, 22 nM, non-anchored, donor 3 [3]: 0.8 fold
fold activation, T-cell proliferation, 22 nM, non-anchored, donor 4 [3]: 1 fold
fold activation, T-cell proliferation, 22 nM, non-anchored, mean [3]: 0.9 fold
fold activation, T-cell proliferation, plate-bound Ab 10.6 nM, donor 1 [4]: 1 fold
fold activation, T-cell proliferation, plate-bound Ab 10.6 nM, donor 2 [4]: 4 fold
fold activation, T-cell proliferation, plate-bound Ab 10.6 nM, donor 3 [4]: 4 fold
fold activation, T-cell proliferation, plate-bound Ab 10.6 nM, donor 4 [4]: 5 fold
fold activation, T-cell proliferation, plate-bound Ab 10.6 nM, donor 5 [4]: 4 fold
fold activation, T-cell proliferation, plate-bound Ab 10.6 nM, donor 6 [4]: 12 fold
fold activation, T-cell proliferation, plate-bound Ab 10.6 nM, donor 7 [4]: 3 fold
fold activation, T-cell proliferation, plate-bound Ab 10.6 nM, donor 8 [4]: 2 fold
fold activation, T-cell proliferation, plate-bound Ab 10.6 nM, mean [4]: 4 fold
Kd (hGITR.mmh): 22.7 nM
koff (hGITR.mmh): 0.00784 s⁻¹
kon (hGITR.mmh): 345000 M⁻¹ s⁻¹
t½ (hGITR.mmh): 1.5 min
Kd (mfGITR.mmh): 20.1 nM
koff (mfGITR.mmh): 0.00334 s⁻¹
kon (mfGITR.mmh): 166000 M⁻¹ s⁻¹
t½ (mfGITR.mmh): 3.5 min
Kd (hGITR.mFc): 0.389 nM
koff (hGITR.mFc): 0.000479 s⁻¹
kon (hGITR.mFc): 1.23e+06 M⁻¹ s⁻¹
t½ (hGITR.mFc): 24.1 min
% Activation, NF-kB-Luc, non-anchored [5]: 50%
% Blocking, NF-kB-Luc, non-anchored [5]: 60%
EC50, hGITR activation, NF-kB-Luc, non-anchored [5]: 0.4 nM
IC50, blocking of hGITRL stimulation, NF-kB-Luc, non-anchored [5]: 3.8 nM
